B1: DNA repair and telomere maintenance protein nbs1 (Schizosaccharomyces pombe (strain ATCC 38366 / 972)), O43070 (parent)
chain: MWIIEAEGDILKGKSRILFPGTYIVGRNVSDDSSHIQVISKSISKRHARFTILTPSEKDYFTGGPCEFEVKDLDTKFGTKVNEKVVGQNGDSYKEKDLKIQLGKCPFTINAYWRSMCIQFDNPEMLSQWASNLNLLGIPTGLRDSDATTHFVMNRQAGSSITVGTMYAFLKKTVIIDDSYLQYLSTVKESVIEDASLMPDALECFKNIIKNNDQFPSSPEDCINSLEGFSCAMLNTSSESHHLLELLGLRISTFMSLGDIDKELISKTDFVVLNNAVYDSEKISFPEGIFCLTIEQLWKIIIERNSRELISKEIERLKYATASNSTPQKIIQPQRHIQKNIVDDLFSVKKPLPCSPKSKRVKTLENLSIMDFVQPKQMFGKEPEGYLSNQSNNGSAQNKKSGDNSEKTKNSLKSSSKKSANTGSGQGKTKVEYVSYNSVDKGNSSPFKPLELNVVGEKKANAEVDSLPSENVQESEDDKAFEENRRLRNLGSVEYIRIMSSEKSNANSRHTSKYYSGRKNFKKFQKKASQKAPLQAFLSLSEHKKTEVFDQDDTDLEPVPRLMSKVESIPAGASSDKSGKSSISKKSSNSFKELSPKTNNDEDDEFNDLKFHF
partner: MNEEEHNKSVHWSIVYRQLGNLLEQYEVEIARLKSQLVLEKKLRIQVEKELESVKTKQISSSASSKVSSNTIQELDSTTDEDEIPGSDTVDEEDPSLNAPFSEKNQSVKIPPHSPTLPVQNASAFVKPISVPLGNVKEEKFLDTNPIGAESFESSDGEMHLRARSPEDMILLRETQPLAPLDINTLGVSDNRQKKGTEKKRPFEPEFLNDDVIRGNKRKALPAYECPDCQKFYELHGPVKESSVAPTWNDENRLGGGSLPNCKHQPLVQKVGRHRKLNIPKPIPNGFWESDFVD

Variants of: B1
Details: with com1_schpo ctp1, O74986

Variant | effect of a mutation on the interaction
R27A;K45A | decreasing interaction
